Results taken from patent US20240261333A1 (published 2024).

T1: S100A7 (human, UniProt P31151 2-101)
T1 construct: also called NP_002954.2
T1 sequence (looked up): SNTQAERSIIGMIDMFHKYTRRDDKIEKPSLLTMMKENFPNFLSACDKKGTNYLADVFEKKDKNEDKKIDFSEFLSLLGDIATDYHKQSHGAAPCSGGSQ

T2: TTC13 (human, UniProt Q8NBP0-2 1-806, limits assumed)
T2 construct: also called NP_001116307.2 (+5)
T2 sequence (looked up): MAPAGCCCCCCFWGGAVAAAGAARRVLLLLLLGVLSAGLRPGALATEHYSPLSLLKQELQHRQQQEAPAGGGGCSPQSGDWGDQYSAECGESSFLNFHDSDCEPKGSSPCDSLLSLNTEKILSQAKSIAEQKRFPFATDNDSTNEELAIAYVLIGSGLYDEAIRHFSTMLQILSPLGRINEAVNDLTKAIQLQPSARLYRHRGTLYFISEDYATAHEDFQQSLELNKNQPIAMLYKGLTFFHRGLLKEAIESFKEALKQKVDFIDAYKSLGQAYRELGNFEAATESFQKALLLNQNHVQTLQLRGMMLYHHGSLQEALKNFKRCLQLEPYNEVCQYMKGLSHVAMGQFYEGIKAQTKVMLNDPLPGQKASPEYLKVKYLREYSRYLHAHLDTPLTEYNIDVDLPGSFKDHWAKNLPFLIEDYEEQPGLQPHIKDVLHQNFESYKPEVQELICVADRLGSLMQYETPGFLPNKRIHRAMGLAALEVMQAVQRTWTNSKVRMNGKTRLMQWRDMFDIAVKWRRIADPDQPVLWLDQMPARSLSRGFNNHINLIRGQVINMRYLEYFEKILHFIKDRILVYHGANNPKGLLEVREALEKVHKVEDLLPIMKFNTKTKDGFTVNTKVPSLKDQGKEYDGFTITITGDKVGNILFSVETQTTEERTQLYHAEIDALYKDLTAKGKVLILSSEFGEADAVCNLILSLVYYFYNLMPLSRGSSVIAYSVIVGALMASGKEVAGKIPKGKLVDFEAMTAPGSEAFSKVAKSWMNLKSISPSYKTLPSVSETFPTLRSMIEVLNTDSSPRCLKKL

T3: SBSN (human, UniProt Q6UWP8 26-590)
T3 construct: also called NP_00159506.1 (+2)
T3 sequence (looked up): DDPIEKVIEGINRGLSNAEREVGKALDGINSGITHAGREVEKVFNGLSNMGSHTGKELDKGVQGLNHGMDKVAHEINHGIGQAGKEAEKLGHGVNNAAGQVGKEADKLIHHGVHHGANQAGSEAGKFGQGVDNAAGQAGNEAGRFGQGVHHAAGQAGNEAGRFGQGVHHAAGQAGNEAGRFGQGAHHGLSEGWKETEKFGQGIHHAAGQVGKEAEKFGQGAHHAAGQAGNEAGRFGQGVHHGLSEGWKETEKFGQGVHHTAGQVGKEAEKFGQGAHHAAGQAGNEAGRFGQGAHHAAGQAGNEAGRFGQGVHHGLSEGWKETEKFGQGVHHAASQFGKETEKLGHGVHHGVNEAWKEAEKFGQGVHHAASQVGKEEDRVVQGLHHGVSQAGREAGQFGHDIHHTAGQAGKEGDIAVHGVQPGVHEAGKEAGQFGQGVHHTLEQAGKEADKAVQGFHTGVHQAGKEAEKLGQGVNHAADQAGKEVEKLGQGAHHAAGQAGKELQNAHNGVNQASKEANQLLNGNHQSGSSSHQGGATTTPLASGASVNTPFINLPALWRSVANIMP


What was measured:
Test in all cases: co-IP with anti-FLAG, N-FLAG B3GNT2, mass spectrometry
S100A7 = biological target: T1, S100A7
Method: (§1) Cells were plated in 10-cm cell culture dishes and grown to 60-80% confluency. For each condition, two biological replicates were harvested for co-IP. Cells were washed with PBS and 4 mL of lysis buffer (20 mM HEPES, 1% Triton X-100, 150 mM NaCl, 1 mM EDTA, and 10% glycerol) containing protease inhibitor cocktail was added. Cells were scraped and lysate was incubated at 4° C. under rotary agitation for 1 h. Lysate was centrifuged at 14,000×g for 10 min at 4° C. Supernatant was transferred to a new tube and an aliquot was taken as the input. […] For Western blots, 10 μg/mL Chicken Anti-FLAG (Aves labs ET-DY100) and IgY control (R&D Systems AB-101-C) antibodies were biotinylated (Thermo Fisher Scientific 90407) and added to the respective conditions. Lysates with antibodies were incubated at 4° C. under rotary agitation overnight. For each mL of lysate, 50 μL of Pierce Protein A/G Magnetic Beads (Mass spectrometry; Thermo Fisher Scientific 88803) or Pierce Streptavidin Magnetic Beads (Western blot; Thermo Fisher Scientific 88817) was washed twice with lysis buffer. Lysates with antibodies were added to the beads and incubated at 4° C. under rotary agitation for 4 h. Beads were washed with lysis buffer 3 times and resuspended in lysis buffer for storage.
(§2) Magnetic beads were resuspended in 100 mM Tris pH 7.8, reduced, alkylated and digested with trypsin at 37° ° C. overnight. This solution was subjected to solid phase extraction to concentrate the peptides and remove unwanted reagents followed by injection onto a Shimadzu HPLC with fraction collector. Eight fractions were collected and after concentration were injected on a Waters NanoAcquity HPLC equipped with a self-packed Aeris 3 μm C18 analytical column 0.075 mm by 20 cm, (Phenomenex). Peptides were eluted using standard reverse-phase gradients. The effluent from the column was analyzed using a Thermo Orbitrap Elite mass spectrometer (nanospray configuration) operated in a data dependent manner for 54 minutes. The resulting fragmentation spectra were correlated against the known database using Proteome Discover 1.4 (Thermo Fisher Scientific).

TTC13 = biological target: T2, TTC13
Method: as §1, §2

SBSN = biological target: T3, SBSN
Method: as §1, §2

RPL7A = RPL7A (human, UniProt P62424 1-266)
Method: as §1, §2

Row | co-IP mass spectrometry count (S100A7) | co-IP/MS count, N-term FLAG (TTC13) | co-IP/MS count, N-term FLAG (SBSN) | co-IP/MS count, N-term FLAG (RPL7A) | Binder
1 | 3 | – | – | – | N-terminal FLAG tagged B3GNT2 (enzyme, human, UniProt Q9NY97 1-397, looked up, FLAG-tagged ORF overexpressed in cells; pulled down from lysate with mouse anti-FLAG; also called N-FLAG B3GNT2; N-term FLAG; not shown: N-terminal FLAG tag) MSVGRRRIKLLGILMMANVFIYFIMEVSKSSSQEKNGKGEVIIPKEKFWKISTPPEAYWNREQEKLNRQYNPILSMLTNQTGEAGRLSNISHLNYCEPDLRVTSVVTGFNNLPDRFKDFLLYLRCRNYSLLIDQPDKCAKKPFLLLAIKSLTPHFARRQAIRESWGQESNAGNQTVVRVFLLGQTPPEDNHPDLSDMLKFESEKHQDILMWNYRDTFFNLSLKEVLFLRWVSTSCPDTEFVFKGDDDVFVNTHHILNYLNSLSKTKAKDLFIGDVIHNAGPHRDKKLKYYIPEVVYSGLYPPYAGGGGFLYSGHLALRLYHITDQVHLYPIDDVYTGMCLQKLGLVPEKHKGFRTFDIEEKNKNNICSYVDLMLVHSRKPQEMIDIWSQLQSAHLKC
2 | – | 0 | 27 | 8 | N-terminal FLAG tagged B3GNT2 (enzyme, human, UniProt Q9NY97 1-397, looked up, FLAG-tagged ORF overexpressed in A375 cells; pulled down from the lysate with mouse anti-FLAG; also called N-FLAG B3GNT2; N-term FLAG; not shown: N-terminal FLAG tag) MSVGRRRIKLLGILMMANVFIYFIMEVSKSSSQEKNGKGEVIIPKEKFWKISTPPEAYWNREQEKLNRQYNPILSMLTNQTGEAGRLSNISHLNYCEPDLRVTSVVTGFNNLPDRFKDFLLYLRCRNYSLLIDQPDKCAKKPFLLLAIKSLTPHFARRQAIRESWGQESNAGNQTVVRVFLLGQTPPEDNHPDLSDMLKFESEKHQDILMWNYRDTFFNLSLKEVLFLRWVSTSCPDTEFVFKGDDDVFVNTHHILNYLNSLSKTKAKDLFIGDVIHNAGPHRDKKLKYYIPEVVYSGLYPPYAGGGGFLYSGHLALRLYHITDQVHLYPIDDVYTGMCLQKLGLVPEKHKGFRTFDIEEKNKNNICSYVDLMLVHSRKPQEMIDIWSQLQSAHLKC
